Measured values taken from patent US20230295310A1 (ABCELLERA BIOLOGICS, published 2023).

Legend:
[1] = biological target: T1, human CD3 expressed on cells (human, UniProt P07766 23-207; P04234 22-171; P09693 23-182); test: flow cytometry, 25 nM
T1 construct: whole, on cells; CD3 complex on Jurkat cells and on human primary T cells
Summary of the method: (§1)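 Cells expressing CD3 were exposed to each antibody diluted to 25 nM for 30 minutes at 4° C, then analysed by flow cytometry. The median fluorescence signal was expressed relative to an isotype control, and a value of at least 10 indicated binding.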

[2] = biological target: T1, human CD3 expressed on cells; test: flow cytometry, human primary T cells (Jurkat cells in c2 gave 15.495, CD3 KO Jurkat cells in c3 gave 38.63)
Description: Purified antibodies were confirmed to bind CD3 expressed on cells using the CytoFLEX S or LX flow cytometers (Beckman Coulter). Antibodies were diluted to 25 nM in FACS buffer (PBS+2% FBS) and were incubated with CD3-expressing cells for 30 minutes at 4° C. […] The median fluorescence intensity of the binding signal for each antibody was normalized to the isotype control to obtain a fold over isotype value. An antibody with a fold over isotype (FOI) of ≥10 was considered to be positive for binding.

[3] = biological target: T2, cynomolgus monkey CD3 expressed on primary T cells (cynomolgus monkey, UniProt Q95LI5 22-198; Q95LI8 22-171; Q95LI7 23-181); test: flow cytometry, 25 nM, cyno primary T cells
T2 construct: whole, on cells; CD3 complex on purified cynomolgus monkey T cells; also called cyno CD3
Summary of the method: as §1

[4] = biological target: T3, human CD3 expressed on cells (Jurkat cells; human primary T cells) (human, UniProt P07766 23-207; P04234 22-171; P09693 23-182); test: flow cytometry, 25 nM, human primary T cells
T3 construct: whole, on cells
Summary of the method: as §1

[5] = biological target: T3, human CD3 expressed on cells (Jurkat …); test: flow cytometry, 25 nM, Jurkat cells
Summary of the method: as §1

[6] = biological target: T4, cynomolgus monkey CD3 expressed on cyno primary T cells (cynomolgus monkey, UniProt Q95LI5 22-198; Q95LI8 22-171; Q95LI7 23-181); test: flow cytometry, 25 nM, cyno primary T cells
T4 construct: whole, on cells; CD3 complex on purified cynomolgus monkey CD3 pan T cells; also called cyno CD3
Summary of the method: as §1

T3 sequence (P07766 23-207, chain 1 of 3): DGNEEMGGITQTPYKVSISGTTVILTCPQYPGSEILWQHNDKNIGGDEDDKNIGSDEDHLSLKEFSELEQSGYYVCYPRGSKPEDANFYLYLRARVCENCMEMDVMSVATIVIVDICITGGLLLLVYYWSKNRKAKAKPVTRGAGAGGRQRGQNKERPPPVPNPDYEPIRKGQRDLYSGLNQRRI
T3 sequence (P04234 22-171, chain 2 of 3): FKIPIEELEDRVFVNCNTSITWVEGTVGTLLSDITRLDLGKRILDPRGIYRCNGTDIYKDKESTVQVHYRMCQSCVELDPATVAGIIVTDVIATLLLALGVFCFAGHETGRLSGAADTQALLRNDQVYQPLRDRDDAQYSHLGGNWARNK
T3 sequence (P09693 23-182, chain 3 of 3): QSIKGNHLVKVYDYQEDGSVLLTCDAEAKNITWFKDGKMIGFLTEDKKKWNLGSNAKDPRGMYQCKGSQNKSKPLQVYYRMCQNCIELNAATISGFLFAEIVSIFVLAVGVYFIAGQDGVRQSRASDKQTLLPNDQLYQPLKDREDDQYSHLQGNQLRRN
T4 sequence (Q95LI5 22-198, chain 1 of 3): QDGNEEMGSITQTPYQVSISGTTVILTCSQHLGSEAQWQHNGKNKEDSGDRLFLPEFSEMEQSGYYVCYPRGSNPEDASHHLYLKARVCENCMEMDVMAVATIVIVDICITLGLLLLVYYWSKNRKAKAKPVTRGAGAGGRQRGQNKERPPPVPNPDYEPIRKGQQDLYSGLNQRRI
T4 sequence (Q95LI8 22-171, chain 2 of 3): as the sequence (P04234 22-171, chain 2 of 3) above, with I5V, N15K, I20V, S32T, D33N, I34N, T64A, S74N, V83L, H141R counted along it
T4 sequence (Q95LI7 23-181, chain 3 of 3): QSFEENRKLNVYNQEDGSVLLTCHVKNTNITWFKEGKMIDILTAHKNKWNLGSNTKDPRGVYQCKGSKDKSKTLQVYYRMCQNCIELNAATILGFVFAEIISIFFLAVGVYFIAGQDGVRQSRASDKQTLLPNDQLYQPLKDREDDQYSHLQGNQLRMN
T1 sequence (P07766 23-207, chain 1 of 3): as the sequence (P07766 23-207, chain 1 of 3) above
T1 sequence (P04234 22-171, chain 2 of 3): as the sequence (P04234 22-171, chain 2 of 3) above
T1 sequence (P09693 23-182, chain 3 of 3): as the sequence (P09693 23-182, chain 3 of 3) above
T2 sequence (Q95LI5 22-198, chain 1 of 3): as the sequence (Q95LI5 22-198, chain 1 of 3) above
T2 sequence (Q95LI8 22-171, chain 2 of 3): as the sequence (P04234 22-171, chain 2 of 3) above, with I5V, N15K, I20V, S32T, D33N, I34N, T64A, S74N, V83L, H141R counted along it
T2 sequence (Q95LI7 23-181, chain 3 of 3): as the sequence (Q95LI7 23-181, chain 3 of 3) above

Binder | Jurkat Cell Binding (FOI) [1] | binding result [2] | binding result [3] | Binding (FOI) [4] | Binding (FOI) [5] | Binding (FOI) [6]
mAb 143 (antibody, V domains shown) VH: QVQLMQSGSELEKPGASVKVSCKASGYTFTSFAINWVRQAPGQGLEWMGWINTITGNPSYAQGFTGRFVFSLDTSVTTAFLQINSLKTEDTAVYYCARYVTSSGKFDYWGQGTLVTVSS VL: DIQMTQSPSSVSASVGDRVTITCRASRGISRWLDWYQQKPGKAPKLLIYAASNLQGGVPSRFSGSGSGTDFTLTIRSLQPEDFAIYYCQQAKTFPFTFGPGTKVDIK | 15.5 FOI | no binding (tested: FOI >=10 = positive; 25 nM) | no binding (tested: FOI >=10 = positive) |  |  | 
mAb 177 (antibody, V domains shown, VH/VL only; the printed VL holds a letter U) VH: EVQLVESGGGLVQPGMSLRLSCAASGFTFDDYTMHWVRQSPGKGLEWVAGISWNSGTIGYGDSMKGRFTISRDNAKNSLDLQMNSLRVEDTALYYCAKDTSGYGHYYYYFMDVWGKGTTVTVSS VL: DIQMTQSPSSLSASIGDRVSITCRTSQIINNYLNWYQQKPGKAPKLLIYSASSLQSGVPSRFSGSGSGTDFTLTLSSLQPEDFATYFCQQSYNFPITFGQGTRLELK |  |  |  | 146 FOI | 121 FOI | 45.1 FOI
mAb 178 (antibody, V domains shown, VH/VL only) VH: EVQLVESGGGLVQPGRSLRLSCAASGFTFDDYTMHWVRQAPGKGLEWVSDISWNSGTIGYADSVKGRFTISRDNAKNSLYLQMNSLRAEDTALYYCVKDSSGYGHYYKYYMDVWGKGTTVTVSS VL: DIQMTQSPSSLSASVGDRVTITCRASQSISNYLNWYQQKAGKVPKVLIYGSSSLQSGVPSRFSGSGSGTDFTLTISSLQPEDFASYYCQQTYSSPLTFGGGTKVDFK |  |  |  | 172 FOI | 128 FOI | 158 FOI
mAb 179 (antibody, V domains shown, VH/VL only) VH: EVQLVESGGGLVQPGRSLRLSCAASGFTFDDYTMHWVRQTPGKGLEWVSDISWNSGSIGYADSVKGRFTISRDNAKNTLYLQMNSLRAEDTALYYCVKDSSGYGHYLYYYMDVWGKGTTVTVSS VL: DIQMTQSPSSLSASVGDRVTITCRASQSIRNYLNWYQQSPGRAPKLLIFSASSLQSGVPSRFSGSGSGTDFTLTISSLQPEDFVTYYCQQRYSTPITFGQGTRLEIK |  |  |  | 177 FOI | 129 FOI | 54.2 FOI
